Source: PMC10397247
Like-named read-outs stand apart in the source and are kept apart here. Values belong to the binder of their own block, whether it stands above or below them.

Assays:
4H465-AA = molecular target: T1, 4H465-AA; test: two-hybrid library CCmax; conditions: mean of both orientations;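 also: natural log of median RNA to DNA barcode read ratio; higher means stronger binding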
T1 chain: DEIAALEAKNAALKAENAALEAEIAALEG

4H3939-AA = molecular target: T2, 4H3939-AA; test: two-hybrid library CCmax; conditions: mean of both orientations;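 also: natural log of median RNA to DNA barcode read ratio; higher means stronger binding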
T2 chain: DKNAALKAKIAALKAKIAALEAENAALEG

4H_APH = molecular target: T3, 4H_APH; test: two-hybrid library CCmax; conditions: mean of both orientations;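 also: natural log of median RNA to DNA barcode read ratio; higher means stronger binding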
T3 chain: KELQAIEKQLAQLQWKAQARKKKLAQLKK

4H568-AA = molecular target: T4, 4H568-AA; test: two-hybrid library CCmax; conditions: mean of both orientations;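 also: natural log of median RNA to DNA barcode read ratio; higher means stronger binding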
T4 chain: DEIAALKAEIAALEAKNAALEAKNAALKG

4H486-AA = molecular target: T5, 4H486-AA; test: two-hybrid library CCmax; conditions: mean of both orientations;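 also: natural log of median RNA to DNA barcode read ratio; higher means stronger binding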
T5 chain: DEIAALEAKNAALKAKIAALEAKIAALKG

4H3969-AA = molecular target: T6, 4H3969-AA; test: two-hybrid library CCmax; conditions: mean of both orientations;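 also: natural log of median RNA to DNA barcode read ratio; higher means stronger binding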
T6 chain: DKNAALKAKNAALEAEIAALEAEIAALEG

4H967-AA = molecular target: T7, 4H967-AA; test: two-hybrid library CCmax; conditions: mean of both orientations
T7 chain: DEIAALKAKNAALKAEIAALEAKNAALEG

4H535-AA = molecular target: T8, 4H535-AA; test: two-hybrid library CCmax; conditions: mean of both orientations
T8 chain: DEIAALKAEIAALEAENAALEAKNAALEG

4H953-AA = molecular target: T9, 4H953-AA; test: two-hybrid library CCmax; conditions: mean of both orientations
T9 chain: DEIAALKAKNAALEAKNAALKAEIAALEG

4H797-AA = molecular target: T10, 4H797-AA; test: two-hybrid library CCmax; conditions: mean of both orientations
T10 chain: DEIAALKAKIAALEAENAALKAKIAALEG

4H918-AA = molecular target: T11, 4H918-AA; test: two-hybrid library CCmax
T11 chain: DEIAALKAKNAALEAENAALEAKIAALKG

4H687-AA = molecular target: T12, 4H687-AA; test: two-hybrid library CCmax; conditions: mean of both orientations
T12 chain: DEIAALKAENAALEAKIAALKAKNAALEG

4H3855-AA = molecular target: T13, 4H3855-AA; test: two-hybrid library CCmax; conditions: mean of both orientations
T13 chain: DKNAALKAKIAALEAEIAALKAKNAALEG

4H717-AA = molecular target: T14, 4H717-AA; test: two-hybrid library CCmax; conditions: mean of both orientations
T14 chain: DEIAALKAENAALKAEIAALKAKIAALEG

4H464-AA = molecular target: T15, 4H464-AA; test: two-hybrid library CCmax; conditions: mean of both orientations
T15 chain: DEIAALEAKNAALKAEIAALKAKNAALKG

4H483-AA = molecular target: T16, 4H483-AA; test: two-hybrid library CCmax; conditions: mean of both orientations
T16 chain: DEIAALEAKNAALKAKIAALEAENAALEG

GCN2_T = test: two-hybrid library CCmax
4H58-AA = molecular target: T17, 4H58-AA; test: two-hybrid library CCmax; conditions: mean of both orientations
T17 chain: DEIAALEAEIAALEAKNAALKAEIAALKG

4H63-AA = molecular target: T18, 4H63-AA; test: two-hybrid library CCmax; conditions: mean of both orientations
T18 chain: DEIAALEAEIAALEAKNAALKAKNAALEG

4H_BCR = molecular target: T19, 4H_BCR; test: two-hybrid library CCmax; conditions: mean of both orientations
T19 chain: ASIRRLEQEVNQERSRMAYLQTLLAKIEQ

4H446-AA = molecular target: T20, 4H446-AA; test: two-hybrid library CCmax; conditions: mean of both orientations
T20 chain: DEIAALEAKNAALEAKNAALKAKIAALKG

4H895-AA = molecular target: T21, 4H895-AA; test: two-hybrid library CCmax; conditions: mean of both orientations
T21 chain: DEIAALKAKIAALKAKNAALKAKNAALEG

4H3782-AA = molecular target: T22, 4H3782-AA; test: two-hybrid library CCmax
T22 chain: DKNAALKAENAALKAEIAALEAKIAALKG

4H_GCN4 = test: two-hybrid library CCmax; conditions: mean of both orientations
4H_GCN4, sequence (chain, as listed by the source): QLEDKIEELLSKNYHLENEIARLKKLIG

4H380-AA = molecular target: T23, 4H380-AA; test: two-hybrid library CCmax; conditions: mean of both orientations
T23 chain: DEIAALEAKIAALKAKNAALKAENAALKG

4H883-AA = molecular target: T24, 4H883-AA; test: two-hybrid library CCmax; conditions: mean of both orientations
T24 chain: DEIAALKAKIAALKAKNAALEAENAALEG

4H4001-AA = molecular target: T25, 4H4001-AA; test: two-hybrid library CCmax; conditions: mean of both orientations
T25 chain: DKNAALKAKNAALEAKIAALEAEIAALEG

4H3606-AA = molecular target: T26, 4H3606-AA; test: two-hybrid library CCmax; conditions: mean of both orientations
T26 chain: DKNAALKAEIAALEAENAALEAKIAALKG

4H881-AA = molecular target: T27, 4H881-AA; test: two-hybrid library CCmax; conditions: mean of both orientations
T27 chain: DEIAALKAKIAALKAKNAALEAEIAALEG

4H3655-AA = molecular target: T28, 4H3655-AA; test: two-hybrid library CCmax; conditions: mean of both orientations
T28 chain: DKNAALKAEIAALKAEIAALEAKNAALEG

4H605-AA = molecular target: T29, 4H605-AA; test: two-hybrid library CCmax; conditions: mean of both orientations
T29 chain: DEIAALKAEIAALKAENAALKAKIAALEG

4H429-AA = molecular target: T30, 4H429-AA; test: two-hybrid library CCmax; conditions: mean of both orientations
T30 chain: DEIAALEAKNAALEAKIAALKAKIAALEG

4H3427-AA = molecular target: T31, 4H3427-AA; test: two-hybrid library CCmax
T31 chain: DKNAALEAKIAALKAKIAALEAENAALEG

4H993-AA = molecular target: T32, 4H993-AA; test: two-hybrid library CCmax; conditions: mean of both orientations
T32 chain: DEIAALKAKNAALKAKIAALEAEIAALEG

4H454-AA = molecular target: T33, 4H454-AA; test: two-hybrid library CCmax; conditions: mean of both orientations
T33 chain: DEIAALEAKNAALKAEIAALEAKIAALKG

4H48-AA = molecular target: T34, 4H48-AA; test: two-hybrid library CCmax; conditions: mean of both orientations
T34 chain: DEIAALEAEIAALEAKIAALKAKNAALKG

4H3627-AA = molecular target: T35, 4H3627-AA; test: two-hybrid library CCmax; conditions: mean of both orientations
T35 chain: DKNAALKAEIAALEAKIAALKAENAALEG

4H566-AA = molecular target: T36, 4H566-AA; test: two-hybrid library CCmax; conditions: mean of both orientations
T36 chain: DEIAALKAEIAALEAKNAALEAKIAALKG

4H906-AA = molecular target: T37, 4H906-AA; test: two-hybrid library CCmax; conditions: mean of both orientations
T37 chain: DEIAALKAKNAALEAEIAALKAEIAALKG

4H3844-AA = molecular target: T38, 4H3844-AA; test: two-hybrid library CCmax; conditions: mean of both orientations
T38 chain: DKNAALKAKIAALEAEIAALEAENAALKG

4H678-AA = molecular target: T39, 4H678-AA; test: two-hybrid library CCmax; conditions: mean of both orientations
T39 chain: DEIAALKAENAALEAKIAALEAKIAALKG

4H3921-AA = molecular target: T40, 4H3921-AA; test: two-hybrid library CCmax; conditions: mean of both orientations
T40 chain: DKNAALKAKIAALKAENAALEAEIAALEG

4H780-AA = molecular target: T41, 4H780-AA; test: two-hybrid library CCmax; conditions: mean of both orientations
T41 chain: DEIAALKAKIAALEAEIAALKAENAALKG

4H794-AA = molecular target: T42, 4H794-AA; test: two-hybrid library CCmax; conditions: mean of both orientations
T42 chain: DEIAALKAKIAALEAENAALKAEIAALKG

O8-bS = molecular target: T43, O8-bS; test: two-hybrid library CCNG1
T43 chain: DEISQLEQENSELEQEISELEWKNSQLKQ

O9-bS = molecular target: T44, O9-bS; test: two-hybrid library CCNG1
T44 chain: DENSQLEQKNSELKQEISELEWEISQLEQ

O3-bS = molecular target: T45, O3-bS; test: two-hybrid library CCNG1
T45 chain: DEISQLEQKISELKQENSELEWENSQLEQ

P6A-bA = molecular target: T46, P6A-bA; test: two-hybrid library CCNG1
T46 chain: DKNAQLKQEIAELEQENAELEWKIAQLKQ

O4-bS = molecular target: T47, O4-bS; test: two-hybrid library CCNG1
T47 chain: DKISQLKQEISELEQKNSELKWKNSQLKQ

O5-bS = molecular target: T48, O5-bS; test: two-hybrid library CCNG1
T48 chain: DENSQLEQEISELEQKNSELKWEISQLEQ

O7-bS = molecular target: T49, O7-bS; test: two-hybrid library CCNG1
T49 chain: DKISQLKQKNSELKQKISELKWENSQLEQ

O6-bS = molecular target: T50, O6-bS; test: two-hybrid library CCNG1
T50 chain: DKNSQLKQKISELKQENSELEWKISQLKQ

interaction score (4H465-AA): -1.7
interaction score (4H3939-AA): -0.413
interaction score (4H_APH): -2.26
interaction score (4H568-AA): -1.41
interaction score (4H486-AA): 1.41
interaction score (4H3969-AA): -0.912
interaction score (4H967-AA): -1.19
interaction score (4H535-AA): -1.44
interaction score (4H953-AA): -1.68
interaction score (4H797-AA): -1.45
interaction score (4H918-AA; mean of both orientations): -0.968
interaction score (4H687-AA): -0.545
interaction score (4H3855-AA): -0.587
interaction score (4H717-AA): 1.02
interaction score (4H464-AA): -0.448
interaction score (4H483-AA): -0.902
interaction score (GCN2_T): -1.87
interaction score (4H58-AA): -1.38
interaction score (4H63-AA): -1.44
interaction score (4H_BCR): -1.19
interaction score (4H446-AA): -1.07
interaction score (4H895-AA): -1.54
interaction score (4H3782-AA): 0.893
interaction score (4H_GCN4): -2.54
interaction score (4H380-AA): -1.52
interaction score (4H883-AA): -1.27
interaction score (4H4001-AA): -0.482
Binder: DKNAALKAENAALKAEIAALEAKIAALKG [4H3782-AA]

interaction score (4H3606-AA): -0.74
interaction score (4H568-AA): -0.257
interaction score (4H881-AA): -1.68
interaction score (4H3655-AA): 0.589
interaction score (4H967-AA): -1.59
interaction score (4H605-AA): -1.66
interaction score (4H953-AA): -1.66
interaction score (4H797-AA): -1.46
interaction score (4H918-AA): -1.2
interaction score (4H429-AA): -1.37
interaction score (4H687-AA): -1.62
interaction score (4H3427-AA): -0.802
interaction score (4H3855-AA): -1.01
interaction score (4H993-AA): -1.24
interaction score (4H454-AA): -0.567
interaction score (4H717-AA): -1.29
interaction score (4H48-AA): 1.18
interaction score (4H3627-AA): -0.773
interaction score (4H566-AA): -1.35
interaction score (4H906-AA): -1.69
interaction score (4H3844-AA): 0.482
interaction score (4H678-AA): -1.47
interaction score (4H3921-AA): -1.79
interaction score (4H780-AA): -1.61
interaction score (4H3782-AA; mean of both orientations): -0.991
interaction score (4H794-AA): -1.26
interaction score (4H883-AA): -1.7
interaction score (4H4001-AA): -1.06
Binder: DKNAALEAKIAALKAKIAALEAENAALEG [4H3427-AA]

interaction score (O8-bS): -0.691
interaction score (O9-bS): -1.14
interaction score (O3-bS): -1.46
interaction score (P6A-bA): -1.14
interaction score (O4-bS): 2.28
interaction score (O5-bS): 0.221
interaction score (O7-bS): -0.235
interaction score (O6-bS): -0.838
Binder: DEISQLEQKISELKQENSELEWENSQLEQ [O3-bS]
